Measured values published in patent US20230095569A1 (ANTENGENE BIOLOGICS, published 2023).

What was measured:
[1] = target: T1, human Claudin18.2 (CLDN18.2) (human, UniProt P56856 1-261); assay: FACS on CHOK1-18.2 cells;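 further: antibody binding to the cells detected with a fluorescently labelled secondary antibody and read out as median fluorescence intensity by flow cytometry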
T1 construct: the cell line is named under assay; also called human Claudine18.2; hClaudin18.2
Experimental: (§1) The specificity and cross-reactivity of these subclones were confirmed with FACs analysis. […] Fluorescent dye-conjugated secondary antibody was used to detect the binding of the primary antibody with the cells. Median fluorescence intensity (MFI) was measured by FACs analysis.

[2] = target: T2, human Claudin18.1 (CLDN18.1) (human, UniProt P56856 1-261); assay: FACS (FIGS. 1A and 1B)
T2 construct: whole, on cells; also called human Claudine18.1

[3] = target: T2, human Claudin18.1 (CLDN18.1); assay: FACS on CHOK1-18.1 cells;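 further: test antibody binding to the cells detected by flow cytometry using a fluorescent dye-labelled secondary antibody, read out as median fluorescence intensity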
Experimental: as §1

FACS MFI [1]: 8400
binding result [2]: no binding
FACS MFI [3]: 80.8
B1: Ab10 (antibody, V domains shown)
VH: EVMLVESGGGLVKPGGSLKLSCAASGFTFSSYTMSWVRQTPEKRLEWVATISVIGGNTYYVDSVKGRFTISRDKAKNTLYLQMSSLRSEDTALYYCARLGQTQRNAMDYWGQGTSVTVSS
VL: DIVMTQSPSSLSVSAGEKVTMSCKSSQSLLNSGNQKNYLAWYQQKPGQPPKLLIYGASTRESGVPDRFTGSGSGTDFTLTISSVQAEDLAVYYCQNDYSYPLTFGAGTKLELK
notes: mouse monoclonal (hybridoma)
